Values of other authors in publication doi:10.1101/2025.09.24.678334.
pKd: −log10 of the molar value.

Biological target: TATA-binding protein (Homo sapiens) (UniProt P20226)
Chain of UniProt P20226 (P20226 whole entry): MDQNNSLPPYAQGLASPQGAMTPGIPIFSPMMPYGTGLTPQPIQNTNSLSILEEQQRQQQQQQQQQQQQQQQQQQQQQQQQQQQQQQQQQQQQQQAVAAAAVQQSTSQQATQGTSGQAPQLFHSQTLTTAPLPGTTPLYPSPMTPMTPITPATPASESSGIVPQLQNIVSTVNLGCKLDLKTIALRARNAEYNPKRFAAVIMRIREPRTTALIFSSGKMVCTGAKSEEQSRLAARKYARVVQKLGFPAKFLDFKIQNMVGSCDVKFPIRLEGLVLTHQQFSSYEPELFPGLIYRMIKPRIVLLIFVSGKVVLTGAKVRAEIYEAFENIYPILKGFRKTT

- pKd: 9.00
Substance: Importin 9 (from UniProt Q96P70)
